Measurements: publication PMC6446905 (Science (New York, N.Y.), 2018)

T1: TAF3 (human (endogenous in HeLa), UniProt Q5VWG9 1-929)
T1 sequence (looked up): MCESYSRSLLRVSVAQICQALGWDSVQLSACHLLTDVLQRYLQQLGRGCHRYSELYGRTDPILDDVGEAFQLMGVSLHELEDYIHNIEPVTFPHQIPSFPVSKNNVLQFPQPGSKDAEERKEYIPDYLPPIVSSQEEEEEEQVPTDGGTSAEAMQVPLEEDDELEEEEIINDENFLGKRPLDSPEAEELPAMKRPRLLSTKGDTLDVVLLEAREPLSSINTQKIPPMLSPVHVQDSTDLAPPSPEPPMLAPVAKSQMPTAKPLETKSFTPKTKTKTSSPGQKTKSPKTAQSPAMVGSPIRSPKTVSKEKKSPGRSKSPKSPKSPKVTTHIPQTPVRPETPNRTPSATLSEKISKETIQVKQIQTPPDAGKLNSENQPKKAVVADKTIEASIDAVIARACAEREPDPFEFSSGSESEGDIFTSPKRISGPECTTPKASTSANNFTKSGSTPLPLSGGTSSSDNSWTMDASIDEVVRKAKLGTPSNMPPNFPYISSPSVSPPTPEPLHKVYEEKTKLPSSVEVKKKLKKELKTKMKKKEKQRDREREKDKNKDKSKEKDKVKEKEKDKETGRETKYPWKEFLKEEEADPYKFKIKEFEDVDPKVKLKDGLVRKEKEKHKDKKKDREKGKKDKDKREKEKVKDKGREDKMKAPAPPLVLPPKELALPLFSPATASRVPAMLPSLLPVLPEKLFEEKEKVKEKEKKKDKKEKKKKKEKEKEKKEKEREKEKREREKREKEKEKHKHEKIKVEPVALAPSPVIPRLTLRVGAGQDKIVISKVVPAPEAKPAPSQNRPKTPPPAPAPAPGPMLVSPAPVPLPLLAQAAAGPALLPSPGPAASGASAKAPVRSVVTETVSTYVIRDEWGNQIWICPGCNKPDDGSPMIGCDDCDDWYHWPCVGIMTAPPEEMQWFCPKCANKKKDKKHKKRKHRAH

T2: TAF8 (human (endogenous in HeLa), UniProt Q7Z7C8 1-310)
T2 sequence (looked up): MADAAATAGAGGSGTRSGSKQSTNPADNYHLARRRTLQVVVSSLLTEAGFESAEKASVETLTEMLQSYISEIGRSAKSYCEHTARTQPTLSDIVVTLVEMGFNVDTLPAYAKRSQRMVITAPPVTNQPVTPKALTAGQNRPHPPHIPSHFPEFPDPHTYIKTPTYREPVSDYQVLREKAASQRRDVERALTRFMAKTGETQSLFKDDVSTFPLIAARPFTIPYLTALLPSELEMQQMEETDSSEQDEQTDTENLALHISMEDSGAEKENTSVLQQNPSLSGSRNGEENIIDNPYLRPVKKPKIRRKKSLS


Key:
Assay in all cases: cryo-EM structure
TAF3 = biological target: T1, TAF3
TAF8 = biological target: T2, TAF8
TAF11 = TAF11 (human (endogenous in HeLa), UniProt Q15544 1-211)
Chain of TAF11 (Q15544 whole entry): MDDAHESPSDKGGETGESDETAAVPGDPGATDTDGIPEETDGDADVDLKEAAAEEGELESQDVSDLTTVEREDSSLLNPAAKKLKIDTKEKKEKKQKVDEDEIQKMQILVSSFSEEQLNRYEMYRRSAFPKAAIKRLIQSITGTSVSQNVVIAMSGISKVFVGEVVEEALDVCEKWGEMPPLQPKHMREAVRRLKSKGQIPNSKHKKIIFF

Row | Binder | binding result (TAF3) | binding result (TAF8) | binding result (TAF11)
1 | TAF10 (natural protein) not shown | binds | binds | –
2 | TAF13 (natural protein, human (endogenous in HeLa), UniProt Q15543 1-124, looked up) MADEEEDPTFEEENEEIGGGAEGGQGKRKRLFSKELRCMMYGFGDDQNPYTESVDILEDLVIEFITEMTHKAMSIGRQGRVQVEDIVFLIRKDPRKFARVKDLLTMNEELKRARKAFDEANYGS | – | – | binds
